Laboratory results reported in the supplement of paper PMC7125110.
± gives the standard error. For part of these data: This sample holds only a part of the variants without activity.

B1: glmS ribozyme (parent)
chain: AUAAAAGCGCCAGAACUACAGAAAUGUAGUUGACGAGGAGGAGGUUUAUCGAAUUUUCGGCGGAUGCCUCCAAA

Experiments:
Details in all cases: with glucosamine-6-phosphate
[1] = variants of: B1; test: kcat; higher = faster cleavage; RNA array
Summary of the method: (§1)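 Weighted Michaelis–Menten fits across concentrations supplied kcat and KM, based on kobs from one- or two-exponential decay fits to normalised per-tile medians. The data came from barcoded ribozyme variants transcribed in situ by E. coli RNA polymerase on sequenced MiSeq chips and tracked at 37 °C by a hybridised Cy3 probe. Glucosamine-6-phosphate (40 μM to 10 mM) in HEPES/KCl/Mg(OAc)2 buffer was flowed in.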

[2] = variants of: B1; test: KM; higher = weaker cofactor use; RNA array
Summary of the method: as §1

[3] = variants of: B1; test: self-cleavage kobs at 2500 uM GlcN6P; higher = faster cleavage; RNA array
Summary of the method: as §1

[4] = variants of: B1; test: self-cleavage kobs at 10000 uM GlcN6P; higher = faster cleavage; RNA array
Summary of the method: as §1

[5] = variants of: B1; test: self-cleavage kobs at 160 uM GlcN6P; higher = faster cleavage; RNA array
Summary of the method: as §1

[6] = variants of: B1; test: self-cleavage kobs at 640 uM GlcN6P; higher = faster cleavage; RNA array
Summary of the method: as §1

[7] = variants of: B1; test: self-cleavage kobs at 40 uM GlcN6P; higher = faster cleavage; RNA array
Summary of the method: as §1

A39G C50U
kcat [1]: 0.000157 ± 2.6e-05 s⁻¹ | KM [2]: 3430 ± 1200 µM | self-cleavage kobs at 2500 uM GlcN6P [3]: 6.91e-05 ± 1.4e-05 s⁻¹ | self-cleavage kobs at 10000 uM GlcN6P [4]: 0.000115 ± 2.5e-05 s⁻¹

G35U G51C
kcat [1]: < 1e-05 s⁻¹ | self-cleavage kobs at 160 uM GlcN6P [5]: < 1e-05 s⁻¹ | self-cleavage kobs at 640 uM GlcN6P [6]: < 1e-05 s⁻¹

A39G U56A
kcat [1]: 0.0171 ± 0.0023 s⁻¹ | KM [2]: 1670 ± 340 µM | self-cleavage kobs at 40 uM GlcN6P [7]: 0.000348 ± 6.9e-05 s⁻¹ | self-cleavage kobs at 160 uM GlcN6P [5]: 0.00162 ± 0.00029 s⁻¹ | self-cleavage kobs at 640 uM GlcN6P [6]: 0.0049 ± 0.00073 s⁻¹ | self-cleavage kobs at 2500 uM GlcN6P [3]: 0.0133 ± 0.0025 s⁻¹ | self-cleavage kobs at 10000 uM GlcN6P [4]: 0.0137 ± 0.0019 s⁻¹

G37A U46C
kcat [1]: 0.0015 ± 0.00029 s⁻¹ | KM [2]: 4230 ± 1100 µM | self-cleavage kobs at 160 uM GlcN6P [5]: 5.92e-05 ± 9.2e-06 s⁻¹ | self-cleavage kobs at 640 uM GlcN6P [6]: 0.000204 ± 3e-05 s⁻¹ | self-cleavage kobs at 2500 uM GlcN6P [3]: 0.00046 ± 8e-05 s⁻¹ | self-cleavage kobs at 10000 uM GlcN6P [4]: 0.00117 ± 0.00017 s⁻¹

G37C
kcat [1]: 5.32e-05 ± 1.7e-06 s⁻¹ | KM [2]: 1380 ± 210 µM | self-cleavage kobs at 640 uM GlcN6P [6]: 1.88e-05 ± 1.5e-06 s⁻¹ | self-cleavage kobs at 2500 uM GlcN6P [3]: 3.22e-05 ± 1.5e-06 s⁻¹ | self-cleavage kobs at 10000 uM GlcN6P [4]: 4.71e-05 ± 8.5e-07 s⁻¹

G37A
kcat [1]: 0.00564 ± 0.001 s⁻¹ | KM [2]: 3540 ± 830 µM | self-cleavage kobs at 40 uM GlcN6P [7]: 7.38e-05 ± 1.4e-06 s⁻¹ | self-cleavage kobs at 160 uM GlcN6P [5]: 0.000198 ± 7.5e-06 s⁻¹ | self-cleavage kobs at 640 uM GlcN6P [6]: 0.000777 ± 1.7e-05 s⁻¹ | self-cleavage kobs at 2500 uM GlcN6P [3]: 0.00255 ± 7.6e-05 s⁻¹ | self-cleavage kobs at 10000 uM GlcN6P [4]: 0.00419 ± 8.2e-05 s⁻¹

G37U
kcat [1]: < 1e-05 s⁻¹ | self-cleavage kobs at 2500 uM GlcN6P [3]: < 1e-05 s⁻¹ | self-cleavage kobs at 10000 uM GlcN6P [4]: < 1e-05 s⁻¹

A36G C70A
kcat [1]: 1.58e-05 ± 4.3e-06 s⁻¹

A39U U69A
kcat [1]: 0.000214 ± 3.6e-05 s⁻¹ | KM [2]: 2430 ± 770 µM | self-cleavage kobs at 640 uM GlcN6P [6]: 5.02e-05 ± 1.2e-05 s⁻¹ | self-cleavage kobs at 2500 uM GlcN6P [3]: 0.000105 ± 1.3e-05 s⁻¹ | self-cleavage kobs at 10000 uM GlcN6P [4]: 0.000197 ± 5.6e-05 s⁻¹

A39C A53U
kcat [1]: 0.00502 ± 0.0011 s⁻¹ | KM [2]: 2730 ± 760 µM | self-cleavage kobs at 40 uM GlcN6P [7]: 7.74e-05 ± 7.6e-06 s⁻¹ | self-cleavage kobs at 160 uM GlcN6P [5]: 0.000227 ± 3.4e-05 s⁻¹ | self-cleavage kobs at 640 uM GlcN6P [6]: 0.000952 ± 0.00013 s⁻¹ | self-cleavage kobs at 2500 uM GlcN6P [3]: 0.00344 ± 0.00044 s⁻¹ | self-cleavage kobs at 10000 uM GlcN6P [4]: 0.00367 ± 0.00039 s⁻¹

A39C A53C
kcat [1]: 0.00121 ± 6.7e-05 s⁻¹ | KM [2]: 2680 ± 240 µM | self-cleavage kobs at 40 uM GlcN6P [7]: 2.09e-05 ± 8.9e-06 s⁻¹ | self-cleavage kobs at 160 uM GlcN6P [5]: 7.25e-05 ± 1.1e-05 s⁻¹ | self-cleavage kobs at 640 uM GlcN6P [6]: 0.000221 ± 2.6e-05 s⁻¹ | self-cleavage kobs at 2500 uM GlcN6P [3]: 0.000595 ± 6.8e-05 s⁻¹ | self-cleavage kobs at 10000 uM GlcN6P [4]: 0.000957 ± 0.0001 s⁻¹

G40A A42C
kcat [1]: 2.78e-05 ± 3.3e-06 s⁻¹ | KM [2]: 1680 ± 670 µM | self-cleavage kobs at 160 uM GlcN6P [5]: < 1e-05 s⁻¹

G40A A42U
kcat [1]: 7.24e-05 ± 1.6e-05 s⁻¹ | self-cleavage kobs at 2500 uM GlcN6P [3]: 7.53e-05 ± 1.2e-05 s⁻¹ | self-cleavage kobs at 10000 uM GlcN6P [4]: 5.75e-05 ± 1.2e-05 s⁻¹

G38U C67A
kcat [1]: 1.4e-05 ± 1.8e-06 s⁻¹

G38U C67U
kcat [1]: < 1e-05 s⁻¹

A39C G44C
kcat [1]: 1.03e-05 ± 1.3e-06 s⁻¹ | KM [2]: 3630 ± 1200 µM | self-cleavage kobs at 160 uM GlcN6P [5]: < 1e-05 s⁻¹

A39C G44U
kcat [1]: 4.89e-05 ± 4.8e-06 s⁻¹ | KM [2]: 4080 ± 1200 µM | self-cleavage kobs at 10000 uM GlcN6P [4]: 3.48e-05 ± 8.8e-06 s⁻¹
